In patent US20030087819:

Biological target: T1, synthetic apoA-IMilano peptide 167-R173C-184
T1 chain: SDELRQCLAARLEALKEN

B1: recombinant human LCAT enzyme (Lecithin:Cholesterol Acyltransferase) (protein)
chain: FWLLNVLFPPHTTPKAELSNHTRPVILVPGCLGNQLEAKLDKPDVVNWMCYRKTEDFFTIWLDLNMFLPLGVDCWIDNTRVVYNRSSGLVSNAPGVQIRVPGFGKTYSVEYLDSSKLAGYLHTLVQNLVNNGYVRDETVRAAPYDWRLEPGQQEEYYRKLAGLVEEMHAAYGKPVFLIGHSLGCLHLLYFLLRQPQAWKDRFIDGFISLGAPWGGSIKPMLVLASGDNQGIPIMSSIKLKEEQRITTTSPWMFPSRMAWPEDHVFISTPSFNYTGRDFQRFFADLHFEEGWYMWLQSRDLLAGLPAPGVEVYCLYGVGLPTPRTYIYDHGFPYTDPVGVLYEDGDDTVATRSTELCGLWQGRQPQPVHLLPLHGIQHLNMVFSNLTLEHINAILLGAYRQGPPASPTASPEPPPPE
Question: How did the “LCAT activation (esterification of [14C]cholesterol on a proteoliposome substrate), as a percentage of activation obtained with apoA-IWT” value turn out when B1 was run?
Answer: failed in this regard
